Test results taken from paper PMC3960148, “Atypical Response Regulator ChxR from Chlamydia trachomatis Is Structurally Poised for DNA Binding” (PLoS ONE, 2014).
Changes are numbered by the printed parent chain.

B1: full-length ChxR (natural protein, Chlamydia trachomatis, UniProt A0A0H3MDW1 1-227, looked up)
chain: MAGPKHVLLVSEHWDLFFQTKELLNPEEYRCTIGQQYKQELSADLVVCEYSLLPREIRSPKSLEGSFVLVLLDFFDEETSVDLLDRGFWYLIRPITPRILKSAISLFLSQHSLHSVPESIRFGPNVFYVLKLTVETPEGSVHLTPSESGILKRLLINKGQLCLRKHLLEEIKNHAKAIVARNVDVHIASLRKKLGAYGSRIVTLRGVGYLFSDDGDKKFSQQDTKLS
notes: ChxR, atypical OmpR/PhoB subfamily response regulator of Chlamydia trachomatis, full length; The calculated MW of the dimer is ~56 kDa; also called wild-type ChxR; not shown: His-tag (24 residues), N-terminal, kept
B2: full-length ChxR with Ala substitution of Arg205 (natural protein)
chain: B1 chain with R205A
notes: ChxR of Chlamydia trachomatis, full-length protein with an Ala substitution; Made from the same plasmid as m1; also called Arg205 substitution; source: mutation introduced into the full-length ChxR plasmid (QuikChange II XL)
B3: ChxR^H186A (natural protein)
chain: B1 chain with H186A
notes: ChxR of Chlamydia trachomatis, full-length protein with an Ala substitution; Made from the same plasmid as m1; also called His186 substitution; source: mutation introduced into the full-length ChxR plasmid (QuikChange II XL)
B4: full-length ChxR with Ala substitution of Lys192 (natural protein)
chain: B1 chain with K192A
notes: ChxR of Chlamydia trachomatis, full-length protein with an Ala substitution; Made from the same plasmid as m1; also called Lys192 substitution; source: mutation introduced into the full-length ChxR plasmid (QuikChange II XL)
B5: full-length ChxR with Ala substitution of Asn182 (natural protein)
chain: B1 chain with N182A
notes: ChxR of Chlamydia trachomatis, full-length protein with an Ala substitution; Made from the same plasmid as m1; also called Asn182 substitution; source: mutation introduced into the full-length ChxR plasmid (QuikChange II XL)

Legend:
[1] = test system: ChxR effector domain (ChxREff) (Chlamydia trachomatis); test: EMSA; settings: EMSA as in ref 17 (buffer, salt, pH, temperature not given); 1 nM IR800-DNA with 50 nM-10 uM ChxREff, triplicate; 44 uM full-length ChxR (wild type, H186A) in …
[2] = target: the molecule itself; test: SAXS; full-length ChxR in solution at 1.25, 2.5 and 5.0 mg/ml, 20°C, 5% (v/v) glycerol added; curves extrapolated to infinite dilution; mass estimated from the Porod volume
[3] = target: the molecule itself; test: SEC; proper folding of the full-length ChxR Ala mutants was assessed by size exclusion chromatography; the sentence on homodimers names no method

| Molecule | binding result [3] | also measured |
| --- | --- | --- |
| DR2 site of chxR promoter |  | Kd [1]: 450 nM |
| B1 |  | stoichiometry N [2]: 2 |
| B2 | binds |  |
| B3 | binds |  |
| B4 | binds |  |
| B5 | binds |  |
